Measured values published in patent publication US20120021972A1 (CADILA HEALTHCARE, published 2012).
Starred links: 1 amine or outer side, 2 acyl side, 3 side chain; linkers in the order of their positions; H or OH if unused. Non-standard residues stand in square brackets, D forms with d. No end group written: not given here. NMe2F‑APPA = N-methyl-2-amino-5-(2-fluorophenyl)pentanoic acid, CN([C@@H](CCCc1ccccc1F)C(=O)[*:2])[*:1]; 2,4‑diF‑APPA = 2-amino-5-(2,4-difluorophenyl)pentanoic acid, O=C([C@H](CCCc1ccc(F)cc1F)N[*:1])[*:2]; AMCB = 2-amino-5-(4-chloro-2-methylphenyl)pentanoic acid, Cc1cc(Cl)ccc1CCC[C@H](N[*:1])C(=O)[*:2]; ACPP = 2-amino-5-(3-chlorophenyl)pentanoic acid, O=C([C@H](CCCc1cccc(Cl)c1)N[*:1])[*:2]; 2Cl,4OMe‑APPA = 2-amino-5-(2-chloro-4-methoxyphenyl)pentanoic acid; 2CF3‑APPA = 2-amino-5-(2-(trifluoromethyl)phenyl)pentanoic acid; Bip(2'-Et-4'-OMe) = CCc1cc(OC)ccc1-c1ccc(C[C@H](N)C(=O)O)cc1; Leu(5,5,5,5',5',5'-F6) = N[C@@H](CC(C(F)(F)F)C(F)(F)F)C(=O)O; Nva(5-(3,5-Me2Ph)) = Cc1cc(C)cc(CCC[C@H](N)C(=O)O)c1; 2Cl‑APPA = 2-amino-5-(2-chlorophenyl)pentanoic acid; 2F‑APPA = 2-amino-5-(2-fluorophenyl)pentanoic acid; αMePhe(2-F) = C[C@](N)(Cc1ccccc1F)C(=O)O; Phe(2-F) = N[C@@H](Cc1ccccc1F)C(=O)O; NMeBip(OMe) = N-methylated Bip(OMe); hhPhe = N[C@@H](CCCc1ccccc1)C(=O)O; aThr = C[C@H](O)[C@H](N)C(=O)O; αMeP = C[C@@]1(C(=O)O)CCCN1; NMeAPPA = not defined here; CNB = not defined here; Aib = CC(C)(N)C(=O)O

target: human GLP-1 receptor (human, UniProt P43220 24-463); assay: cell-based or functional assay
Sequence (P43220 24-463): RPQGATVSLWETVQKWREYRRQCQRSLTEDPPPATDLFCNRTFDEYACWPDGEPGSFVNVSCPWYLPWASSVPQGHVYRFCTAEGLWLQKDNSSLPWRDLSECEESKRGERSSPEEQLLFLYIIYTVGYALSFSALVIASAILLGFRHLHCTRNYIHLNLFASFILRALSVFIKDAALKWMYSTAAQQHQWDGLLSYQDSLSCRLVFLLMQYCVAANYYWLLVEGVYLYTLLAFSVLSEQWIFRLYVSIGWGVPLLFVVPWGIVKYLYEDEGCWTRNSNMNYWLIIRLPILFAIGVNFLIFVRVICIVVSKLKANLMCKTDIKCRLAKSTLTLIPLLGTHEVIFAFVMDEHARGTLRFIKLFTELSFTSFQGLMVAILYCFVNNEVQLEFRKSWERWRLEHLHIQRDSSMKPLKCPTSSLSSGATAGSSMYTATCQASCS

Row | Binder | cAMP release, % activity, 1 nM | cAMP release, % activity, 10 nM | cAMP release, % activity, 100 nM | cAMP release, % activity, 1 µM | cAMP release, % activity, 10 µM
1 | H[Aib][CNB]G[aThr][αMePhe(2-F)]TSD[Bip(2'-Et-4'-OMe)][2F‑APPA] (reading uncertain) [Seq. ID. No. 112: H-Aib-(CNB)-G-T(allo)-(α-Me-2F-Phe)-TSD-Bip(OMe)-(2F-APPA)] | 39% | 81% | 89% | 96% | 99%
2 | HSQGTFTSD[Bip(2'-Et-4'-OMe)][2CF3‑APPA] [Seq. ID. No. 47: HSQGTFTSD-Bip(OMe)-(2CF3-APPA)] | 55% | 89% | 93% | 99% | 99%
3 | H[Aib]QGTFTSD[Bip(2'-Et-4'-OMe)][2Cl,4OMe‑APPA] [Seq. ID. No. 68: H-Aib-QGTFTSD-Bip(OMe)-(2Cl, 4OMe-APPA)] | 39% | 80% | 88% | 96% | 99%
4 | H[Aib][CNB]GT[αMePhe(2-F)][aThr]SD[Bip(2'-Et-4'-OMe)][2F‑APPA] (reading uncertain) [Seq. ID. No. 120: H-Aib-(CNB)-GT-(α-Me-2F-Phe)-T(allo)-SD-Bip(OMe)-(2F-APPA)] | 99% | 99% | 99% | 99% | 99%
5 | H[Aib][CNB]G[aThr][αMePhe(2-F)]TSD[Bip(2'-Et-4'-OMe)][hhPhe] (reading uncertain) [Seq. ID. No. 110: H-Aib-(CNB)-G-T(allo)-(α-Me-2F-Phe)-TSD-Bip(OMe)-(APPA)] | 38% | 77% | 85% | 94% | 97%
6 | H[Aib][Leu(5,5,5,5',5',5'-F6)]GT[αMePhe(2-F)]TSD[Bip(2'-Et-4'-OMe)][Nva(5-(3,5-Me2Ph))] [Seq. ID. No. 235: H-Aib-(Hfl)-GT-(α-Me-2F-Phe)-TSD-Bip(OMe)-(ADMP)] | 99% | 99% | 99% | 99% | 99%
7 | H[Aib]QGT[αMePhe(2-F)]TSD[Bip(2'-Et-4'-OMe)][ACPP] [Seq. ID. No. 39: H-Aib-QGT-(α-Me-2F-Phe)-TSD-Bip(OMe)-(ACPP)] | 40% | 81% | 87% | 95% | 98%
8 | H[αMeP]QGTFTSD[Bip(2'-Et-4'-OMe)][ACPP] [Seq. ID. No. 11: H-(α-Me-Pro)-QGTFTSD-Bip(OMe)-(ACPP)] | 99% | 99% | 99% | 99% | 99%
9 | HSQGTFTSD[Bip(2'-Et-4'-OMe)][2Cl‑APPA] [Seq. ID. No. 50: HSQGTFTSD-Bip(OMe)-(2Cl-APPA)] | 60% | 92% | 98% | 99% | 99%
10 | H[Aib][CNB]G[aThr][αMePhe(2-F)][aThr]SD[NMeBip(OMe)][NMe2F‑APPA] (reading uncertain) [Seq. ID. No. 144: H-Aib-(CNB)-G-T(allo)-(α-Me-2F-Phe)-T(allo)-SD-((NMe)Bip(OMe))-((NMe)(2F-APPA))] | 55% | 89% | 93% | 99% | 99%
11 | H[Aib][CNB]G[aThr][αMePhe(2-F)][aThr]SD[Bip(2'-Et-4'-OMe)][hhPhe] (reading uncertain) [Seq. ID. No. 114: H-Aib-(CNB)-G-T(allo)-(α-Me-2F-Phe)-T(allo)-SD-Bip(OMe)-(APPA)] | 82% | 87% | 92% | 99% | 99%
12 | H[Aib][CNB]GTFTSD[Bip(2'-Et-4'-OMe)][2Cl,4OMe‑APPA] (reading uncertain) [Seq. ID. No. 84: H-Aib-(CNB)-GTFTSD-Bip(OMe)-(2Cl,4OMe-APPA)] | 38% | 77% | 85% | 94% | 97%
13 | H[Aib]QGTFTSD[Bip(2'-Et-4'-OMe)][2,4‑diF‑APPA] [Seq. ID. No. 62: H-Aib-QGTFTSD-Bip(OMe)-(2,4-diF-APPA)] | 38% | 78% | 86% | 95% | 98%
14 | H[Aib][CNB]GTFTSD[Bip(2'-Et-4'-OMe)][AMCB] (reading uncertain) [Seq. ID. No. 32: H-Aib-(CNB)-GTFTSD-Bip(OMe)-(AMCB)] | 39% | 80% | 88% | 96% | 99%
15 | H[Aib][CNB]G[aThr][αMePhe(2-F)][aThr]SD[Bip(2'-Et-4'-OMe)][2F‑APPA] (reading uncertain) [Seq. ID. No. 116: H-Aib-(CNB)-G-T(allo)-(α-Me-2F-Phe)-T(allo)-SD-Bip(OMe)-(2F-APPA)] | 55% | 88% | 92% | 99% | 99%
16 | H[Aib][CNB]G[aThr][αMePhe(2-F)][aThr]SD[Bip(2'-Et-4'-OMe)][NMeAPPA] (reading uncertain) [Seq. ID. No. 130: H-Aib-(CNB)-G-T(allo)-(α-Me-2F-Phe)-T(allo)-SD-Bip(OMe)-((NMe)(APPA))] | 39% | 81% | 89% | 96% | 99%
17 | H[Aib]QGT[Phe(2-F)]TSD[Bip(2'-Et-4'-OMe)][Nva(5-(3,5-Me2Ph))] [Seq. ID. No. 42: H-Aib-QGT-(2F-Phe)-TSD-Bip(OMe)-(ADMP)] | 39% | 81% | 89% | 96% | 99%

target: human glucagon receptor (human, UniProt P47871 26-477); assay: cell-based or functional assay

Row | Binder | inhibition of cAMP production, 1 nM | inhibition of cAMP production, 10 nM | inhibition of cAMP production, 100 nM | inhibition of cAMP production, 1 µM | inhibition of cAMP production, 10 µM
18 | H[Aib][CNB]G[aThr][αMePhe(2-F)]TSD[Bip(2'-Et-4'-OMe)][2F‑APPA] (reading uncertain) [Seq. ID. No. 112: H-Aib-(CNB)-G-T(allo)-(α-Me-2F-Phe)-TSD-Bip(OMe)-(2F-APPA)] | 6 pmol/ml/µg prt | 5 pmol/ml/µg prt | 2 pmol/ml/µg prt | 0 pmol/ml/µg prt | 0 pmol/ml/µg prt
19 | H[Aib][CNB]GT[αMePhe(2-F)][aThr]SD[Bip(2'-Et-4'-OMe)][2F‑APPA] (reading uncertain) [Seq. ID. No. 120: H-Aib-(CNB)-GT-(α-Me-2F-Phe)-T(allo)-SD-Bip(OMe)-(2F-APPA)] | 0 pmol/ml/µg prt | 0 pmol/ml/µg prt | 0 pmol/ml/µg prt | 0 pmol/ml/µg prt | 0 pmol/ml/µg prt
20 | H[Aib][CNB]G[aThr][αMePhe(2-F)]TSD[Bip(2'-Et-4'-OMe)][hhPhe] (reading uncertain) [Seq. ID. No. 110: H-Aib-(CNB)-G-T(allo)-(α-Me-2F-Phe)-TSD-Bip(OMe)-(APPA)] | 18 pmol/ml/µg prt | 16 pmol/ml/µg prt | 12 pmol/ml/µg prt | 8 pmol/ml/µg prt | 6 pmol/ml/µg prt
21 | H[αMeP]QGTFTSD[Bip(2'-Et-4'-OMe)][ACPP] [Seq. ID. No. 11: H-(α-Me-Pro)-QGTFTSD-Bip(OMe)-(ACPP)] | 3 pmol/ml/µg prt | 0 pmol/ml/µg prt | 0 pmol/ml/µg prt | 0 pmol/ml/µg prt | 0 pmol/ml/µg prt
22 | H[Aib][CNB]G[aThr][αMePhe(2-F)][aThr]SD[NMeBip(OMe)][NMe2F‑APPA] (reading uncertain) [Seq. ID. No. 144: H-Aib-(CNB)-G-T(allo)-(α-Me-2F-Phe)-T(allo)-SD-((NMe)Bip(OMe))-((NMe)(2F-APPA))] | 5 pmol/ml/µg prt | 3 pmol/ml/µg prt | 0 pmol/ml/µg prt | 0 pmol/ml/µg prt | 0 pmol/ml/µg prt
23 | H[Aib][CNB]G[aThr][αMePhe(2-F)][aThr]SD[Bip(2'-Et-4'-OMe)][hhPhe] (reading uncertain) [Seq. ID. No. 114: H-Aib-(CNB)-G-T(allo)-(α-Me-2F-Phe)-T(allo)-SD-Bip(OMe)-(APPA)] | 4 pmol/ml/µg prt | 2 pmol/ml/µg prt | 0 pmol/ml/µg prt | 0 pmol/ml/µg prt | 0 pmol/ml/µg prt
24 | H[Aib][CNB]GTFTSD[Bip(2'-Et-4'-OMe)][2Cl,4OMe‑APPA] (reading uncertain) [Seq. ID. No. 84: H-Aib-(CNB)-GTFTSD-Bip(OMe)-(2Cl,4OMe-APPA)] | 4 pmol/ml/µg prt | 2 pmol/ml/µg prt | 0 pmol/ml/µg prt | 0 pmol/ml/µg prt | 0 pmol/ml/µg prt
25 | H[Aib][CNB]G[aThr][αMePhe(2-F)][aThr]SD[Bip(2'-Et-4'-OMe)][2F‑APPA] (reading uncertain) [Seq. ID. No. 116: H-Aib-(CNB)-G-T(allo)-(α-Me-2F-Phe)-T(allo)-SD-Bip(OMe)-(2F-APPA)] | 2 pmol/ml/µg prt | 0 pmol/ml/µg prt | 0 pmol/ml/µg prt | 0 pmol/ml/µg prt | 0 pmol/ml/µg prt
26 | H[Aib][CNB]G[aThr][αMePhe(2-F)][aThr]SD[Bip(2'-Et-4'-OMe)][NMeAPPA] (reading uncertain) [Seq. ID. No. 130: H-Aib-(CNB)-G-T(allo)-(α-Me-2F-Phe)-T(allo)-SD-Bip(OMe)-((NMe)(APPA))] | 5 pmol/ml/µg prt | 3 pmol/ml/µg prt | 1 pmol/ml/µg prt | 0 pmol/ml/µg prt | 0 pmol/ml/µg prt
